Reference: paper PMC9958131 (Nature Communications, 2023)
Residue numbers refer to the chain shown, from its start.

B1: C9JU00 (protein)
chain: MIDAATLKSRKMLEEIMKYEASILTHDSSIRYLQEIYNSNNQKIVNLKEKVAQLEAQCQEPCKDTVQIHDITGKDCQDIANKGAKQSGLYFIKPLKANQQFLVYCEIDGSGNGWTVFQKRLDG
B2: Q9Y2J8 (protein)
chain: MLRERTVRLQYGSRVEAVYVLGTYLWTDVYSAAPAGAQTFSLKHSEHVWVEVVRDGEAEEVATNGKQRWLLSPSTTLRVTMSQASTEASSDKVTVNYYDEEGSIPIDQAGLFLTAIEISLDVDADRDGVVEKNNPKKASWTWGPEGQGAILLVNCDRETPWLPKEDCRDEKVYSKEDLKDMSQMILRTKGPDRLPAGYEIVLYISMSDSDKVGVFYVENPFFGQRYIHILGRRKLYHVVKYTGGSAELLFFVEGLCFPDEGFSGLVSIHVSLLEYMAQDIPLTPIFTDTVIFRIAPWIMTPNILPPVSVFVCCMKDNYLFLKEVKNLVEKTNCELKVCFQYLNRGDRWIQDEIEFGYIEAPHKGFPVVLDSPRDGNLKDFPVKELLGPDFGYVTREPLFESVTSLDSFGNLEVSPPVTVNGKTYPLGRILIGSSFPLSGGRRMTKVVRDFLKAQQVQAPVELYSDWLTVGHVDEFMSFVPIPGTKKFLLLMASTSACYKL
B3: E7ESP9 (protein)
chain: MSYTLDSLGNPSAYRRVTETRSSFSRVSGSPSSGFRSQSWSRGSPSTVSSSYKRSMLAPRLAYSSAMLSSAESSLDFSQSSSLLNGGSGPGGDYKLSRSNEKEQLQGLNDRFAGYIEKVHYLEQQNKEIEAEIQALRQKQASHAQLGDAYDQEIRELRATLEMVNHEKAQVQLDSDHLEEDIHRLKERFEEEARLRDDTEAAIRALRKDIEEASLVKVELDKKVQSLQDEVAFLRSNHEEEVADLLAQIQASHITVERKDYLKTDISTALKEIRSQLESHSDQNMHQAEEWFKCRYAKLTEAAEQNKEAIRSAKEEIAEYRRQLQSKSIELESVRGTKESLERQLSDIEERHNHDLSSYQDTIQQLENELRGTKWEMARHLREYQDLLNVKMALDIEIAAYRKLLEGEETRFSTFAGSITGPLYTHRPPITISSKIQKPKVEAPKLKVQHKFVEEIIEETKVEDEKSEMEEALTAITEELAVSMKEEKKEAAEEKEEEPE
B4: Fibrinogen b: β chain of human fibrinogen, RA autoantigen; native or citrullinated by PAD2 or PAD4 (protein)
chain: MKRMVSWSFHKLKTMKHLLLLLLCVFLVKSQGVNDNEEGFFSARGHRPLDKKREEAPSLRPAPPPISGGGYRARPAKAAATQKKVERKAPDAGGCLHADPDLGVLCPTGCQLQEALLQQERPIRNSVDELNNNVEAVSQTSSSSFQYMYLLKDLWQKRQKQVKDNENVVNEYSSELEKHQLYIDETVNSNIPTNLRVLRSILENLRSKIQKLESDVSAQMEYCRTPCTVSCNIPVVSGKECEEIIRKGGETSEMYLIQPDSSVKPYRVYCDMNTENGGWTVIQNRQDGSVDFGRKWDPYKQGFGNVATNTDGKNYCGLPGEYWLGNDKISQLTRMGPTELLIEMEDWKGDKVKAHYGGFTVQNEANKYQISVNKYRGTAGNALMDGASQLMGENRTMTIHNGMFFSTYDRDNDGWLTSDPRKQCSKEDGGGWWYNRCHAANPNGRYYWGGQYTWDMAKHGTDDGVVWMNWKGSWYSMRKMSMKIRPFFPQQ
B5: P02538 (protein)
chain: MASTSTTIRSHSSSRRGFSANSARLPGVSRSGFSSVSVSRSRGSGGLGGACGGAGFGSRSLYGLGGSKRISIGGGSCAISGGYGSRAGGSYGFGGAGSGFGFGGGAGIGFGLGGGAGLAGGFGGPGFPVCPPGGIQEVTVNQSLLTPLNLQIDPTIQRVRAEEREQIKTLNNKFASFIDKVRFLEQQNKVLETKWTLLQEQGTKTVRQNLEPLFEQYINNLRRQLDSIVGERGRLDSELRGMQDLVEDFKNKYEDEINKRTAAENEFVTLKKDVDAAYMNKVELQAKADTLTDEINFLRALYDAELSQMQTHISDTSVVLSMDNNRNLDLDSIIAEVKAQYEEIAQRSRAEAESWYQTKYEELQVTAGRHGDDLRNTKQEIAEINRMIQRLRSEIDHVKKQCANLQAAIADAEQRGEMALKDAKNKLEGLEDALQKAKQDLARLLKEYQELMNVKLALDVEIATYRKLLEGEECRLNGEGVGQVNISVVQSTVSSGYGGA
B6: P01023 (protein)
chain: MGKNKLLHPSLVLLLLVLLPTDASVSGKPQYMVLVPSLLHTETTEKGCVLLSYLNETVTVSASLESVRGNRSLFTDLEAENDVLHCVAFAVPKSSSNEEVMFLTVQVKGPTQEFKKRTTVMVKNEDSLVFVQTDKSIYKPGQTVKFRVVSMDENFHPLNELIPLVYIQDPKGNRIAQWQSFQLEGGLKQFSFPLSSEPFQGSYKVVVQKKSGGRTEHPFTVEEFVLPKFEVQVTVPKIITILEEEMNVSVCGLYTYGKPVPGHVTVSICRKYSDASDCHGEDSQAFCEKFSGQLNSHGCFYQQVKTKVFQLKRKEYEMKLHTEAQIQEEGTVVELTGRQSSEITRTITKLSFVKVDSHFRQGIPFFGQVRLVDGKGVPIPNKVIFIRGNEANYYSNATTDEHGLVQFSINTTNVMGTSLTVRVNYKDRSPCYGYQWVSEEHEEAHHTAYLVFSPSKSFVHLEPMSHELPCGHTQTVQAHYILNGGTLLGLKKLSFYYLIM
B7: P02533 (protein)
chain: MTTCSRQFTSSSSMKGSCGIGGGIGGGSSRISSVLAGGSCRAPSTYGGGLSVSSSRFSSGGACGLGGGYGGGFSSSSSSFGSGFGGGYGGGLGAGLGGGFGGGFAGGDGLLVGSEKVTMQNLNDRLASYLDKVRALEEANADLEVKIRDWYQRQRPAEIKDYSPYFKTIEDLRNKILTATVDNANVLLQIDNARLAADDFRTKYETELNLRMSVEADINGLRRVLDELTLARADLEMQIESLKEELAYLKKNHEEEMNALRGQVGGDVNVEMDAAPGVDLSRILNEMRDQYEKMAEKNRKDAEEWFFTKTEELNREVATNSELVQSGKSEISELRRTMQNLEIELQSQLSMKASLENSLEETKGRYCMQLAQIQEMIGSVEEQLAQLRCEMEQQNQEYKILLDVKTRLEQEIATYRRLLEGEDAHLSSSQFSSGSQSSRDVTSSSRQIRTKVMDVHDGKVVSTHEQVLRTKN
B8: P13647 (protein, UniProt P13647 1-590, looked up)
chain: MSRQSSVSFRSGGSRSFSTASAITPSVSRTSFTSVSRSGGGGGGGFGRVSLAGACGVGGYGSRSLYNLGGSKRISISTSGGSFRNRFGAGAGGGYGFGGGAGSGFGFGGGAGGGFGLGGGAGFGGGFGGPGFPVCPPGGIQEVTVNQSLLTPLNLQIDPSIQRVRTEEREQIKTLNNKFASFIDKVRFLEQQNKVLDTKWTLLQEQGTKTVRQNLEPLFEQYINNLRRQLDSIVGERGRLDSELRNMQDLVEDFKNKYEDEINKRTTAENEFVMLKKDVDAAYMNKVELEAKVDALMDEINFMKMFFDAELSQMQTHVSDTSVVLSMDNNRNLDLDSIIAEVKAQYEEIANRSRTEAESWYQTKYEELQQTAGRHGDDLRNTKHEISEMNRMIQRLRAEIDNVKKQCANLQNAIADAEQRGELALKDARNKLAELEEALQKAKQDMARLLREYQELMNTKLALDVEIATYRKLLEGEECRLSGEGVGPVNISVVTSSVSSGYGSGSGYGGGLGGGLGGGLGGGLAGGSSGSYYSSSSGGVGLGGGLSVGGSGFSASSGRGLGVGFGSGGGSSSSVKFVSTTSSSRKSFKS
modifications: full-length
B9: K7ERE3 (protein)
chain: MSLRLQSSSASYGGGFGGGSCQLGGGRGVSTCSTRFVSGGSAGGYGGGVSCGFGGGAGSGFGGGYGGGLGGGYGGGLGGGFGGGFAGGFVDFGACDGGLLTGNEKITMQNLNDRLASYLEKVRALEEANADLEVKIRDWHLKQSPASPERDYSPYYKTIEELRDKILTATIENNRVILEIDNARLAADDFRLKYENELALRQSVEADINGLRRVLDELTLSKTDLEMQIESLNEELAYMKKNHEEEMKEFSNQVVGQVNVEMDATPGIDLTRVLAEMREQYEAMAERNRRDAEEWFHTKSAELNKEVSTNTAMIQTSKTEITELRRTLQGLEIELQSQLSMKAGLENTVAETECRYALQLQQIQGLISSIEAQLSELRSEMECQNQEYKMLLDIKTRLEQEIATYRSLLEGQDAK
B10: F5GXS0 (protein)
chain: MRLLWGLIWASSFFTLSLQKPRLLLFSPSVVHLGVPLSVGVQLQDVPRGQVVKGSVFLRNPSRNNVPCSPKVDFTLSSERDFALLSLQVPLKDAKSCGLHQLLRGPEVQLVAHSPWLKDSLSRTTNIQGINLLFSSRRGHLFLQTDQPIYNPGQRVRYRVFALDQKMRPSTDTITVMVENSHGLRVRKKEVYMPSSIFQDDFVIPDISEPGTWKISARFSDGLESNSSTQFEVKKYVLPNFEVKITPGKPYILTVPGHLDEMQLDIQARYIYGKPVQGVAYVRFGLLDEDGKKTFFRGLESQTKLVNGQSHISLSKAEFQDALEKLNMGITDLQGLRLYVAAAIIESPGGEMEEAELTSWYFVSSPFSLDLSKTKRHLVPGAPFLLQALVREMSGSPASGIPVKVSATVSSPGSVPEVQDIQQNTDGSGQVSIPIIIPQTISELQLSVSAGSPHPAIARLTVAAPPSGGPGFLSIERPDSRPPRVGDTLNLNLRAVGSGA
B11: A0A140TA32 (protein)
chain: B10 chain with S347Y
B12: P00488 (protein)
chain: MSETSRTAFGGRRAVPPNNSNAAEDDLPTVELQGVVPRGVNLQEFLNVTSVHLFKERWDTNKVDHHTDKYENNKLIVRRGQSFYVQIDFSRPYDPRRDLFRVEYVIGRYPQENKGTYIPVPIVSELQSGKWGAKIVMREDRSVRLSIQSSPKCIVGKFRMYVAVWTPYGVLRTSRNPETDTYILFNPWCEDDAVYLDNEKEREEYVLNDIGVIFYGEVNDIKTRSWSYGQFEDGILDTCLYVMDRAQMDLSGRGNPIKVSRVGSAMVNAKDDEGVLVGSWDNIYAYGVPPSAWTGSVDILLEYRSSENPVRYGQCWVFAGVFNTFLRCLGIPARIVTNYFSAHDNDANLQMDIFLEEDGNVNSKLTKDSVWNYHCWNEAWMTRPDLPVGFGGWQAVDSTPQENSDGMYRCGPASVQAIKHGHVCFQFDAPFVFAEVNSDLIYITAKKDGTHVVENVDATHIGKLIVTKQIGGDGMMDITDTYKFQEGQEEERLALETALM

System: PAD2 and PAD4
Assay: Citrullination site mapping of fibrinogen and vimentin by trypsin digestion and mass spectrometry (protein-level sheet, one search over native, PAD2-cit and PAD4-cit samples)
Format: biochemical, human
Settings: modified residues found per protein; Deamidated [R..] = deamidated (citrullinated) arginine positions; trypsin digest, Sequest HT; not split by sample (native, PAD2-citrullinated, PAD4-citrullinated fibrinogen and vimentin)
From the text: Description: Raw mass spectrometry data for proteolytic mapping of fibrinogen, vimentin, and hnRNP A2/B1 by cathepsins B, S, and H (sheets 1-6); citrullination site mapping of fibrinogen and vimentin by trypsin digestion (sheets 7-8); and the natural antigen processing assay with native, PAD2-citrullinated (PAD2-cit), and PAD4-citrullinated (PAD4-cit) fibrinogen (sheets 9-11).

Molecule	Modifications
B1	Deamidated [R31]
B2	Deamidated [R5; R8; R54; R68; R78; R157; R187; R193; R225; R232; R344; R347; R373; R428; R441; R442; R546; R552; R580; R582; R652; R653]
B3	Deamidated [R382]
B4	Deamidated [R53; R60; R72; R74; R158; R196; R199; R224; R246; R267; R285; R334; R376; R395; R410; R421; R436; R445; R478]
B5	Deamidated [R182; R222; R326]
B6	Deamidated [R645; R704; R715; R719; R1401; R1407]
B7	Deamidated [R125; R194; R282; R336; R439]; Met-loss+Acetyl [N-Term]
B8	Deamidated [R37; R73; R187; R227]
B9	Deamidated [R27; R212]
B10	Deamidated [R123; R1126]
B11	Deamidated [R123]
B12	Deamidated [R6; R202; R675; R697]; Met-loss+Acetyl [N-Term]
